According to patent US20250326818A1 (UNIVERSIT T BASEL, published 2025):

Target: T1, CD123 ECD wt (human, UniProt P26951 19-305)
T1 construct: Recombinant extracellular domain; Biotinylated when captured for the hIL3 assay; also called CD123_WT; recombinant wildtype CD123
T1 sequence: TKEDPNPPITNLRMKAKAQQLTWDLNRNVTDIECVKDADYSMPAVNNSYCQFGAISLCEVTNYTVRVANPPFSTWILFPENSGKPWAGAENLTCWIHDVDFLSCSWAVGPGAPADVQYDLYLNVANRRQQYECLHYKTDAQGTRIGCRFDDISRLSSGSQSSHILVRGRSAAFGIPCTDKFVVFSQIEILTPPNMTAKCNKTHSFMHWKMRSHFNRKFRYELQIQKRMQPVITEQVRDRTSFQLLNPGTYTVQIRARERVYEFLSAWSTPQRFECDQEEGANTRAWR
Experiment: BLI (Octet), flotetuzumab hIgG1 captured on anti-human Fc tips, CD123 ECD as analyte, level at 250 s
Description: Antibody flotetuzumab hIgG1 was captured by Anti-Human Fc capture biosensor (AHC) (Sartorius, PN: 18-5060) for 300 s at 0.5 μg/mL. Analytes CD123 ECD wt and variants (only CD123 ECD variants at high analyte concentrations) were titrated at 7 concentrations from 50 nM to 0.78 nM or 300 nM to 4.7 nM, respectively. Association to analyte was monitored for 300 s and dissociation for 600 s (CD123 wt) and 900 s (CD123 variants). Double reference subtraction was performed against buffer only well and biosensor loaded with a negative hIgG1 control. Regeneration was performed in 10 mM Gly-HCl pH 1.7. Data were analyzed using the Octet Data Analysis software HT

B1: Flotetuzumab hIgG1 (antibody, V domains shown)
VH: EVQLVQSGAELKKPGASVKVSCKASGYTFTDYYMKWVRQAPGQGLEWIGDIIPSNGATFYNQKFKGRVTITVDKSTSTAYMELSSLRSEDTAVYYCARSHLLRASWFAYWGQGTLVTVSS
VL: DFVMTQSPDSLAVSLGERVTMSCKSSQSLLNSGNQKNYLTWYQQKPGQPPKLLIYWASTRESGVPDRFSGSGSGTDFTLTISSLQAEDVAVYYCQNDYSYPYTFGQGTKLEIK
notes: Tested as hIgG1 in BLI; also called Anti-CD123 antibody (Flotetuzumab)
  binding result: binds
